{
  "source": "patent US12616648B2",
  "about": "“Cosmetic composition” (GIVAUDAN SA, priority 2018, dated 2026)",
  "molecules": {"B1": {"name": "HB-EGF: heparin-binding epidermal growth factor, positive control in the scratch assay (protein, UniProt Q99075 63-148, looked up)", "Heparin-binding EGF-like …": "DLQEADLDLLRVTLSSKPQALATPNKEEHGKRKKKGKGLGKKRDPCLRKYKDFCIHGECKYVKELRAPSCICHPGYHGERCHGLSL"}},
  "system": "Normal Human Keratinocytes (NHEKs)",
  "assay": "NHEK scratch assay (wound healing)",
  "type": "cell-based",
  "conditions": "HB-EGF 1 ng/ml (positive control), overnight pre-incubation, 8 h after scratch",
  "method": "Normal Human Keratinocytes (NHEKs) were seeded at 200′000 cells per well pre-coated with Type I collagen in 12-wells culture plates in the presence of keratinocyte growth medium (KGM, Lonza) supplemented with growth factors such as hydrocortisone, transferrin, epinephrine, bovine pituitary extract (BPE), recombinant human epidermal growth factor (rhEGF) and insulin. At confluence, cells were pre-incubated with the Patchouli stem extract of Example 1 at a concentration of 0.5% (v/v) or heparin-binding epidermal growth factor (HB-EGF) at 1 ng/ml (positive control) overnight in keratinocyte basal medium without supplement. After this pre-conditioning phase, the cell monolayer sticking to the bottom of the well was scratched with a P200 sterile cone, followed by two washes with phosphate buffered saline (PBS). The NHEK were then again stimulated with Patchouli extract at 0.5% or HB-EGF at 1 ng/ml for 8 h in basal medium.\nThe wound healing process was analyzed by pictures recording at T0 and T8h using inverting optical microscope (Zeiss). After image analysis, the percentage of scratch closing was determined relative to untreated condition.",
  "data": [
    {"molecule": "B1", "values": [
      {"measurement": "wound healing (scratch closing relative to untreated condition)", "result": "about +60%"}
    ]}
  ]
}
